# ± gives the uncertainty stated by the source.
# B1: library; numbered along this chain (parent)
# chain: MEVVDPQQLGMFTEGELMSVGMDTFIHRIDSTEVIYQPRRKRAKLIGKYLMGDLLGEGSYGKVKEVLDSETLCRRAVKILKKKKLRRIPNGEANVKKEIQLLRRLRHKNVIQLVDVLYNEEKQKMYMVMEYCVCGMQEMLDSVPEKRFPVCQAHGYFCQLIDGLEYLHSQGIVHKDIKPGNLLLTTGGTLKISDLGVAEALHPFAADDTCRTSQGSPAFQPPEIANGLDTFSGFKVDIWSAGVTLYNITTGLYPFEGDNIYKLFENIGKGSYAIPGDCGPPLSDLLKGMLEYEPAKRFSIRQIRQHSWFRKKHPPAEAPVPIPPSPDTKDRWRSMTVVPYLEDLHGADEDEDLFDIEDDIIYTQDFTVPGQVPEEEASHNGQRRGLPKAVCMNGTEAAQLSTKSRAEGRAPNPARKACSASSKIRRLSACKQQ
# Variants of: B1
# Assay: STK11 functional score (HeLa growth suppression), rescaled enrichment; synonymous median = 1, nonsense median = 0 (normalised score)
# Conditions: with HeLa; variant type: missense
# Outline: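 Codon-randomised (POPCode) libraries of codon-optimised STK11 were integrated by Bxb1 at an AAVS1 landing pad in HeLa, in three regions each transfected three times. Integrants (BFP-negative, mCherry-positive) were FACS-sorted 4–5 days after electroporation and grown about two weeks; tiled gDNA amplicons were sequenced on NextSeq (~2 million reads per tile). The functional score is the wild-type-corrected post/pre-selection log ratio, rescaled to synonymous and nonsense medians, merged over codons and replicate transfections, with bootstrapped error.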
row,Variant,STK11 functional score
1,V372L,1.4 ± 0.3
2,F366L,1.16 ± 0.27
3,F234Y,0.805 ± 0.64
4,Y362S,1.25 ± 0.19
5,K108I,1.43 ± 0.34
6,D277L,0.92 ± 0.12
7,T230S,0.93 ± 0.097
8,Y272L,0.641 ± 0.46
9,H202T,0.925 ± 0.22
10,D229R,0.991 ± 0.36
11,Q123E,1.15 ± 0.23
12,L182N,1.01 ± 0.31
13,L140N,0.0882 ± 0.09
14,M127E,1.59 ± 0.1
15,K269Q,1.5 ± 0.53
16,E57P,1.62 ± 0.32
17,I303N,1.54 ± 0.61
18,S240P,-0.0488 ± 0.11
19,A406F,1.4 ± 0.3
20,N393I,1.39 ± 0.41
21,T250A,1.01 ± 0.11
22,A414W,1.63 ± 0.15
23,D359G,1.36 ± 0.2
24,Y166I,1.21 ± 0.56

row,Variant,STK11 functional score
1,N119T,1.42 ± 0.32
2,L54P,1.21 ± 0.18
3,S428C,1.4 ± 0.17
4,I260G,1.1 ± 0.25
5,V63W,0.213 ± 0.095
6,I424C,1.35 ± 0.4
7,S19V,0.694 ± 0.18
8,R415Y,1.49 ± 0.16
9,T212R,1.48 ± 0.21
10,G155R,0.742 ± 0.4
11,F298L,0.608 ± 0.15
12,P179I,0.823 ± 0.39
13,E33P,1.4 ± 0.33
14,P321W,1.6 ± 0.15
15,G188D,1.43 ± 0.16
16,I248D,0.0228 ± 0.096
17,K78C,0.21 ± 0.078
18,Y340T,1.58 ± 0.14
19,I248L,1.05 ± 0.18
20,P315V,1.17 ± 0.18
21,S325N,1.47 ± 0.18
22,N94S,1.27 ± 0.34
23,A417F,1.15 ± 0.13
24,E317Q,1.2 ± 0.4

row,Variant,STK11 functional score
1,I260T,1.33 ± 0.69
2,D352R,1.61 ± 0.15
3,E65Q,1.18 ± 0.52
4,L201N,1.19 ± 0.12
5,G47S,1.62 ± 0.59
6,E317W,1.62 ± 0.16
7,E374H,1.06 ± 0.53
8,E199G,1.07 ± 0.44
9,V66R,-0.0455 ± 0.097
10,E342Q,1.23 ± 0.3
11,G91K,0.301 ± 0.33
12,H168C,0.168 ± 0.32
13,K83I,1.29 ± 0.08
14,V3M,0.72 ± 0.44
15,R106S,1.49 ± 0.16
16,C158L,0.856 ± 0.2
17,G346S,1.48 ± 0.22
18,S334M,1.05 ± 0.17
19,L400Y,1.55 ± 0.2
20,A200H,1.49 ± 0.32
21,K388A,1.17 ± 0.65
22,Y126L,0.421 ± 0.13
23,V4I,1.43 ± 0.16
24,R425E,1.23 ± 0.47

row,Variant,STK11 functional score
1,Y60M,1.64 ± 0.17
2,N259S,1.34 ± 0.38
3,E293L,0.882 ± 0.13
4,I46D,0.149 ± 0.15
5,V390Y,1.41 ± 0.3
6,G215T,1.19 ± 0.51
7,V66P,0.219 ± 0.12
8,N266D,1.13 ± 0.43
9,P321F,0.903 ± 0.49
10,I424R,1.5 ± 0.17
11,K84G,1.47 ± 0.4
12,Q100L,0.857 ± 0.23
13,Y246V,0.944 ± 0.15
14,G408L,1.59 ± 0.26
15,K312R,1.57 ± 0.17
16,T244P,-0.17 ± 0.1
17,G385S,1.51 ± 0.2
18,E375L,1.04 ± 0.15
19,V337N,1.54 ± 0.17
20,L341P,1.54 ± 0.14
21,K82S,1.15 ± 0.26
22,Q100S,1.1 ± 0.18
23,I356G,1.45 ± 0.37
24,A389P,1.3 ± 0.36

row,Variant,STK11 functional score
1,I161G,0.264 ± 0.092
2,P321S,1.42 ± 0.13
3,E374W,1.55 ± 0.14
4,T244W,0.257 ± 0.092
5,C151L,0.508 ± 0.091
6,T186L,1.54 ± 0.17
7,A410T,0.749 ± 0.21
8,I111M,0.886 ± 0.36
9,E375Y,1.52 ± 0.24
10,F366W,1.58 ± 0.14
11,T250P,-0.224 ± 0.1
12,A389Y,1.15 ± 0.53
13,P203A,0.904 ± 0.61
14,V320P,1.56 ± 0.33
15,E265M,1.25 ± 0.16
16,T230G,0.522 ± 0.15
17,E265G,0.962 ± 0.17
18,G346E,1.35 ± 0.74
19,I260S,1.44 ± 0.32
20,L160R,-0.13 ± 0.095
21,P314G,1.07 ± 0.47
22,L201C,1.12 ± 0.33
23,E33G,0.902 ± 0.25
24,N226G,1.24 ± 0.17

row,Variant,STK11 functional score
1,F264A,1.16 ± 0.36
2,V368I,1.53 ± 0.16
3,I29R,1.14 ± 0.18
4,P179H,-0.0435 ± 0.096
5,I29C,1.41 ± 0.41
6,G10Y,1.18 ± 0.15
7,K269I,1.28 ± 0.17
8,I274A,0.907 ± 0.16
9,E349L,1.47 ± 0.14
10,G163C,0.245 ± 0.11
11,H313E,1.43 ± 0.16
12,Y261L,0.609 ± 0.14
13,E374Y,1.29 ± 0.38
14,W308L,-0.172 ± 0.075
15,C151P,0.45 ± 0.22
16,S404A,1.31 ± 0.34
17,L17Q,1.71 ± 0.4
18,N259F,1.25 ± 0.24
19,I360A,1.6 ± 0.15
20,G188M,-0.0265 ± 0.12
21,T244K,0.388 ± 0.12
22,S283N,1.4 ± 0.29
23,D229T,1.67 ± 0.13
24,F204D,1.09 ± 0.12

row,Variant,STK11 functional score
1,H154W,0.87 ± 0.091
2,D53H,1.23 ± 0.18
3,E293D,1.43 ± 0.47
4,V34R,0.822 ± 0.17
5,T24G,1.43 ± 0.13
6,E33A,1.32 ± 0.2
7,M392A,1.56 ± 0.25
8,R384A,1.33 ± 0.24
9,H168D,0.0708 ± 0.12
10,V66W,0.62 ± 0.19
11,E70A,1.43 ± 0.43
12,L50V,0.846 ± 0.19
13,R383F,1.2 ± 0.17
14,E374D,0.971 ± 0.47
15,K81H,1.25 ± 0.083
16,I172N,0.174 ± 0.13
17,F231N,1.69 ± 0.13
18,E138K,1.59 ± 0.56
19,Y36M,0.892 ± 0.31
20,G270E,1.42 ± 0.72
21,I46L,1.25 ± 0.14
22,A417G,1.47 ± 0.26
23,N90S,1.21 ± 0.14

# From the supplement of paper PMC12338614
